Measured values published in patent publication US20220143136A1, “USE OF ANNEXINS IN PREVENTING AND TREATING MUSCLE MEMBRANE INJURY” (NORTHWESTERN UNIVERSITY, priority 2018, published 2022).
Entries after “also recorded” stand apart in the source; their conditions may differ. Where two headings read alike, the source gives them in different places.

Key:
myofibers [1] = test: Annexin repair cap formation after laser injury at multiple Ca2+ concentrations; assay type: cell-based, mouse; conditions: fluorescently tagged annexin expressed in myofibers; Ca2+ 0-2 mM; modified Hill equation
Protocol: (§1) Electroporation, myofiber isolation, laser injury, cap and vesicle measurement. Flexor digitorum brevis (FDB) fibers were transfected with endo-free plasmid DNA by in vivo electroporation. Methods were described previously in (Demonbreun and McNally, 2015; Demonbreun et al., 2016b; DiFranco et al., 2009). Z-stack projections were acquired from consecutive acquisitions after the final time-lapse frame, approximately 4 minutes post damage, with a […] step size between slices. Z-stack renderings were constructed in FIJI. Measurement of the cap area and feret diameter were conducted from a single slice near the middle of the z-stack using FIJI imaging tools. Fibers expressing similar levels of tagged or GCaMP5G protein were compared. GCaMP5G Ca^2+ fluorescence was measured from the acquired timelapse images, using a standard rectangular ROI, placed inside the myofiber below the site of damage using FIJI. Fluorescence was expressed as F/F0. External vesicle number and GCaMP5G area were measured from endpoint z-stacks and max projection images using FIJI. Vesicles were considered external if they were found outside the sarcolemma assessed in brightfield and fluorescent channels. All measurements were acquired from myofibers isolated from at least n≥3 mice, n≥3 myofibers per mouse.
Calcium kinetics. FDB muscle was electroporated and isolated as described above. Myofibers were damaged in Ringers solution with Ca^2+ concentrations of 2 mM, 1 mM, 0.5 mM, 0.25 mM, 0.175 mM, 0.1 mM, 0.050 mM, and 0 mM. EDTA was added as a Ca^2+ chelating agent in only in the 0 mM Ca^2+ Ringers. Myofibers were isolated directly into 2 mM, 1 mM and 0.5 mM Ringers for those experiments respectively. For experiments using less than 0.5 mM Ca^2+ myofibers were isolated in 0.5 mM Ca^2+ Ringers and then diluted with 0 mM EDTA-free Ca^2+ Ringers. For 0 mM experiments, myofibers were isolated in 0.5 mM Ca^2+ Ringers and then replaced with 0 mM Ca^2++EDTA Ringers just prior to imaging. Co-electroporation of wildtype annexin+wildtype annexin constructs was performed in one mouse foot, while the contralateral foot was co-electroporated with wildtype annexin+mutant annexin. All measurements were acquired from myofibers isolated from at least n≥2 mice, n≥3 myofibers per mouse at each Ca^2+ concentration. Area-Ca^2+ curves were fitted with a Hill Curve at Ca^2+ concentrations ranging from 0-2 mM. Kinetic parameters were calculated using Prism Graphpad.
as §1, with “(Demonbreun A R, Quattrocelli M, Barefield D Y, Allen M V, Swanson K E,” for “(Demonbreun”, “McNally E M. An actin-dependent annexin complex mediates plasma membrane repair in muscle. The Journal of cell biology. 2016; 213(6):705-18; Demonbreun A R, and McNally E M. DNA Electroporation, Isolation and Imaging of Myofibers. Journal of visualized experiments: JoVE.” for “McNally,”, “106(106):e53551;” for “Demonbreun et al., 2016b;”, “M, Quinonez M, Capote J, and Vergara J. DNA transfection of mammalian skeletal muscles using in vivo electroporation. Journal of visualized experiments: JoVE. 2009; 32(32)).” for “et al., 2009).”, “Vesicles were considered external if they were found outside the sarcolemma assessed in brightfield and fluorescent channels. All measurements were acquired from myofibers isolated from at least n≥3 mice, n≥3 myofibers per mouse.” left out

myofibers [2] = test: Bleb formation and intracellular Ca2+ fluorescence (GCaMP5G, Fluo-4) after laser injury with annexin overexpression; assay type: cell-based, mouse; conditions: for internal GCaMP5G Ca2+ fluorescence at the site of injury: vs GCaMP5G alone
Protocol: as §1
as §1, with “(Demonbreun A R, Quattrocelli M, Barefield D Y, Allen M V, Swanson K E,” for “(Demonbreun”, “McNally E M. An actin-dependent annexin complex mediates plasma membrane repair in muscle. The Journal of cell biology. 2016; 213(6):705-18; Demonbreun A R, and McNally E M. DNA Electroporation, Isolation and Imaging of Myofibers. Journal of visualized experiments: JoVE.” for “McNally,”, “106(106):e53551;” for “Demonbreun et al., 2016b;”, “M, Quinonez M, Capote J, and Vergara J. DNA transfection of mammalian skeletal muscles using in vivo electroporation. Journal of visualized experiments: JoVE. 2009; 32(32)).” for “et al., 2009).”
Calcium and pH indicator dye measurements. Wildtype FDBs were isolated and plated in Ringers on Matek glass-bottom dishes as described above. Twenty minutes prior to imaging, myofibers were loaded with Fluo-4 AM at 37° C. (F10489, ThermoFisher Scientific, Waltham, Mass.) or pHrodo AM (P35373, ThermoFisher Scientific, Waltham, Mass.) as described in the instruction manual. Fibers were rinsed once with Ringers then subsequently damaged and imaged on the Nikon A1R GaSP, as described above. Fluorescence intensity was measured using FIJI (NIH). phRodo change in fluorescence intensity was calculated as F/F0. Data was acquired from n=3 mice per experiment from multiple myofibers per mouse. […]

Sgcg-null mice = conditions: 1 mg/kg, 5 injections over 48 hours, 60 minutes downhill running, vs BSA control
Protocol: Serum collection and CK analysis. Mice were sedated (3% isoflurane, 0.8 l/min O2) and blood was collected by means of retro-orbital puncture with heparinized capillary tubes (20-362-566; Fisher Scientific, Waltham, Mass.) into Microtainer™ Gold Top Serum Separator (365967 Becton Dickinson, Franklin Lakes, N.J.) and centrifuged at 8,000×g for 10 minutes. The plasma fractions were frozen and stored at −80° C. Serum creatine kinase (CK) was analyzed in duplicate for each mouse using the EnzyChrom Creatine Kinase Assay (ECPK-100; BioAssay Systems, Hayward, Calif.) following manufacturer's instructions as described (Demonbreun A R, Allen M V, Warner J L, Barefield D Y, Krishnan S, Swanson K E, et al. Enhanced Muscular Dystrophy from Loss of Dysferlin Is Accompanied by Impaired Annexin A6 Translocation after Sarcolemmal Disruption. Am J Pathol. 2016; 186(6):1610-22). Results were acquired with the Synergy HTX multi-mode plate reader (BioTek®, Winooski, Vt.).
Sgcg-null mice were sedated (3% isoflurane, 0.8 l/min O2) and pre-exercise blood was collected by means of left retro-orbital puncture as described above. While sedated, mice were then injected 1 mg/kg recombinant annexin A6 (5186-A6-050, R&D systems) or PBS+1 mg/kg BSA into the right retro-orbital cavity at 9 am and 5 μm for 5 consecutive injection over 48 hours. […] Serum creatine kinase (CK) was analyzed as described above. […]

Molecule	Km1/2 (repair cap area as a function of Ca2+ concentration) (myofibers [1]) [mM]	internal Fluo-4 Ca2+ fluorescence at the site of membrane injury (myofibers [2]; annexin A6 overexpression vs control myofibers)	size of GCaMP5G-containing blebs (myofibers [2]; annexin overexpression vs annexin A1, A2 or GCaMP5G alone)	number of extracellular (GCaMP5G-positive) blebs at the membrane lesion (myofibers [2]; annexin overexpression vs annexin A1 overexpression or GCaMP5G alone)	internal GCaMP5G Ca2+ fluorescence at the site of injury (myofibers [2]; first 20 seconds post injury)	internal GCaMP5G Ca2+ fluorescence at the site of injury (myofibers [2]; over 240 seconds of imaging)	internal GCaMP5G Ca2+ fluorescence at the site of injury (myofibers [2]; over 240 seconds of imaging, listed as A6)	fold change in serum CK post/pre running (Sgcg-null mice)	fold change in serum CK post/pre running (Sgcg-null mice; listed as rANXA6)
annexin A6: annexin A6 with carboxyl-terminal turboGFP or tdTomato tag, expressed from plasmid electroporated into myofibers (protein, UniProt P14824 2-673, looked up, C-terminal turboGFP or tdTomato tag, annexin A6 with carboxyl-terminal turboGFP or tdTomato tag, expressed from plasmid electroporated into myofibers) Annexin A6: AKIAQGAMYRGSVHDFPEFDANQDAEALYTAMKGFGSDKESILELITSRSNKQRQEICQNYKSLYGKDLIEDLKYELTGKFERLIVNLMRPLAYCDAKEIKDAISGVGTDEKCLIEILASRTNEQMHQLVAAYKDAYERDLESDIIGDTSGHFQKMLVVLLQGTRENDDVVSEDLVQQDVQDLYEAGELKWGTDEAQFIYILGNRSKQHLRLVFDEYLKTTGKPIEASIRGELSGDFEKLMLAVVKCIRSTPEYFAERLFKAMKGLGTRDNTLIRIMVSRSELDMLDIREIFRTKYEKSLYSMIKNDTSGEYKKALLKLCGGDDDAAGQFFPEAAQVAYQMWELSAVSRVELKGTVCAANDFNPDADAKALRKAMKGIGTDEATIIDIVTHRSNAQRQQIRQTFKSHFGRDLMADLKSEISGDLARLILGLMMPPAHYDAKQLKKAMEGAGTDEKTLIEILATRTNAEIRAINEAYKEDYHKSLEDALSSDTSGHFRRILISLATGNREEGGENRDQAQEDAQVAAEILEIADTPSGDKTSLETRFMTVLCTRSYPHLRRVFQEFIKKTNYDIEHVIKKEMSGDVKDAFVAIVQSVKNKPLFFADKLYKSMKGAGTDEKTLTRVMVSRSEIDLLNIRREFIEKYDKSLHQAIEGDTSGDFMKALLALCGGED	0.12	Reduction; also recorded: significantly decreased	significantly larger	significantly more blebs	significant reduction	most significant reduction	significant reduction		
recombinant annexin A6: recombinant human annexin A6 protein with C-terminal HIS tag (5186-A6-050, R&D systems); mouse protein from Northwestern core in one cohort (protein, UniProt P08133 2-673, looked up, C-terminal His tag, recombinant human annexin A6 protein with C-terminal HIS tag (5186-A6-050, R&D systems); mouse protein from Northwestern core in one cohort) Annexin A6: AKPAQGAKYRGSIHDFPGFDPNQDAEALYTAMKGFGSDKEAILDIITSRSNRQRQEVCQSYKSLYGKDLIADLKYELTGKFERLIVGLMRPPAYCDAKEIKDAISGIGTDEKCLIEILASRTNEQMHQLVAAYKDAYERDLEADIIGDTSGHFQKMLVVLLQGTREEDDVVSEDLVQQDVQDLYEAGELKWGTDEAQFIYILGNRSKQHLRLVFDEYLKTTGKPIEASIRGELSGDFEKLMLAVVKCIRSTPEYFAERLFKAMKGLGTRDNTLIRIMVSRSELDMLDIREIFRTKYEKSLYSMIKNDTSGEYKKTLLKLSGGDDDAAGQFFPEAAQVAYQMWELSAVARVELKGTVRPANDFNPDADAKALRKAMKGLGTDEDTIIDIITHRSNVQRQQIRQTFKSHFGRDLMTDLKSEISGDLARLILGLMMPPAHYDAKQLKKAMEGAGTDEKALIEILATRTNAEIRAINEAYKEDYHKSLEDALSSDTSGHFRRILISLATGHREEGGENLDQAREDAQVAAEILEIADTPSGDKTSLETRFMTILCTRSYPHLRRVFQEFIKMTNYDVEHTIKKEMSGDVRDAFVAIVQSVKNKPLFFADKLYKSMKGAGTDEKTLTRIMVSRSEIDLLNIRREFIEKYDKSLHQAIEGDTSGDFLKALLALCGGED								reduced	significantly reduced
